Assay [1] has as its target T1, Malaysia/2005 (serotype I EDIII).
T1 construct: also called ED3-DV1/Malaysia05
T1 E protein domain III (EDIII): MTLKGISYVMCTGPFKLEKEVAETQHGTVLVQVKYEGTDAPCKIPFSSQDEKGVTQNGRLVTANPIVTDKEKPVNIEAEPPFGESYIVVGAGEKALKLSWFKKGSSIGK

For assay [2], the target named is T2, ED3-DV4/H241/Phil56 (EDIII of DENV-4 strain H241) (dengue virus serotype DENV-4, strain …, UniProt Q58HT7 572-679).
Assay [3] concerns the target dengue virus DENV-3 strain Philippines/1956 (H87) (live virus; E protein) (dengue virus serotype DENV-3, strain …, UniProt P27915 281-773). Briefly: cell-based or functional assay.
In assay [4] the target is dengue virus DENV-1 strain Hawaii/1944 (live virus; E protein) (dengue virus serotype DENV-1, strain …). Put plainly: cell-based or functional assay.
In assay [5] the target is dengue virus DENV-2 strain New Guinea/1944 (NGC) (live virus; E protein) (dengue virus serotype DENV-2, strain …, UniProt P14340 281-775). Put plainly: cell-based or functional assay.
In assay [6] the target is dengue virus DENV-4 strain Mexico/1997 (BC287/97) (live virus; E protein) (dengue virus serotype DENV-4, strain …). Briefly: cell-based or functional assay.
For assay [7], the target named is T3, EDIII-DV3 (E protein domain III of dengue virus serotype DV-3) (dengue virus serotype DV-3, UniProt P27915 571-678).
T3 construct: also called DENV-3; EDIII of DV-3

The target of assay [8] is T3, EDIII-DV3 (E protein domain III of …). The source holds these as a separate data set.
The target of assay [9] is T4, EDIII-DV4 (E protein domain III of dengue virus serotype DV-4) (dengue virus serotype DV-4, UniProt P09866 572-679).
T4 construct: also called DENV-4

The target of assay [10] is T2, ED3-DV4/H241/Phil56 (EDIII of DENV-4 …). Briefly: ELISA; row Philippines/1956 (H241)*, serotype IV, genotype I.
Assay [11] deals with T5, Hawaii/1944* (serotype I EDIII) (Dengue virus 1).
T5 construct: isolated EDIII protein; also called EDIII of DENV-1 Hawaii/1944
Briefly: SPR; row Hawaii/1944*, serotype I, genotype I.

The target in assay [12] is T5, Hawaii/1944* (serotype I EDIII). Briefly: ELISA; row Hawaii/1944*, serotype I, genotype I.
Assay [13] deals with T6, Vietnam/2007 (serotype II EDIII).
T6 construct: Genotype Asian II; also called ED3-DV2/Viet07
T6 E protein domain III (EDIII): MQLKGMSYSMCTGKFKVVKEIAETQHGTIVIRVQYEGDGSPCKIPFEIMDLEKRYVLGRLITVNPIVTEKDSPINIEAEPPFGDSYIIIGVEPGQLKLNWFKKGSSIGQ
Briefly: ELISA; row Vietnam/2007, serotype II, genotype Asian II.

In assay [14] the target is T7, EDIII-DV2 (E protein domain III of dengue virus serotype DV-2) (dengue virus serotype DV-2, UniProt P14337 573-677).
T7 construct: also called DENV-2; EDIII of DV-2

Assay [15] addresses T8, Brazil/2011 (serotype IV EDIII).
T8 E protein domain III (EDIII): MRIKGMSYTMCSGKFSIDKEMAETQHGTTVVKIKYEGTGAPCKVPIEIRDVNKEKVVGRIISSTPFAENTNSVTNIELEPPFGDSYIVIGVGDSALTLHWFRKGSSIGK
Put plainly: ELISA; row Brazil/2011, serotype IV, genotype I.

For assay [16], the target named is T9, New Caledonia/2009 (serotype IV EDIII).
T9 construct: also called ED3-DV4/NewCal09; DENV-4 NC
T9 E protein domain III (EDIII): T8 E protein domain III (EDIII) with I33V, T38A, V44I, T74I
Briefly: ELISA; row New Caledonia/2009, serotype IV, genotype IIb. (In an ELISA, binding on a coated surface is turned into a signal by an enzyme label.)

Assay [17] addresses T10, Singapore/2008 (serotype II EDIII).
T10 construct: also called ED3-DV2/Sing08; DENV-2 Sing
Put plainly: SPR; row Singapore/2008, serotype II, genotype Cosmopolitan. For orientation: Surface plasmon resonance follows binding to a sensor surface in real time, without labels.

The target of assay [18] is T11, Nicaragua/2010 (serotype III EDIII).
T11 construct: also called ED3-DV3/Nicaragua10; DENV-3 Nic
T11 E protein domain III (EDIII): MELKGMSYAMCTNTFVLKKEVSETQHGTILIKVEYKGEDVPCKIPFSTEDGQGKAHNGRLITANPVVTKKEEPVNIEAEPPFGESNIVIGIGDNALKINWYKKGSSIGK

Assay [19] has as its target T12, Mexico/2007 (serotype I EDIII).
T12 construct: also called ED3-DV1/Mexico07
T12 E protein domain III (EDIII): T1 E protein domain III (EDIII) with I6T, P14S, S48T, V61I, A78T

Assay [20] deals with T13, Peru/1995 (serotype II EDIII).
T13 construct: also called ED3-DV2/Peru95; DENV-2 Peru
Put plainly: SPR; row Peru/1995, serotype II, genotype American.

Assay [21] addresses T9, New Caledonia/2009 (serotype IV EDIII). Briefly: Kd table, method not stated; Ag DENV-4 NC.

Numbering of substitutions follows the chain as printed. Like-named read-outs stand apart in the source and are kept apart here.

The term Kd denotes the concentration at which binding is half-saturated.

T4 sequence (P09866 572-679, tags left off): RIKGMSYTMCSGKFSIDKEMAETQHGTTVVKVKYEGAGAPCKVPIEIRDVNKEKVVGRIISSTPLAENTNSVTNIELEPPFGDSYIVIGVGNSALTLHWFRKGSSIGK
T7 sequence (P14337 573-677, tags left off): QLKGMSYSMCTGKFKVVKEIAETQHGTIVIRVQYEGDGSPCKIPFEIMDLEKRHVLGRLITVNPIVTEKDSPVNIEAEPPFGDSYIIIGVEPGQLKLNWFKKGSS

B1: antibody D88 (antibody, V domains shown)
VH: QVQLVQSGAEVKKPGASVKVSCKAGFNIKDVYMSWVRQAPEQGLEWMGRIDPENGDTKYDPKLQGRVTMTADTSTNTAYMELRSLRSDDTAVYYCARGWEGFAYWGQGTLVTVSS
VL: DIVMTQSPASLAVSLGERATISCRASENVDKYGNSFMHWYQQKPGQPPKLLIYRASELQWGVPDRFSGSGSGTDFTLTISSLQAEDVAVYYCQRSNEVPWTFGQGTKLEIK
notes: also called mAb D88
Regarding B1, the dissociation constant Kd turned out to be 0.064 nM in [1]; 100 nM in assay [2]; 1 nM in [7]; 1.05 nM in [8]; 5.01 nM in assay [9]; 113 nM in [10]. For the same molecule, the Kd was 0.041 nM in assay [11]; less than 0.1 nM in assay [12]; less than 0.1 nM in [13]; 0.016 nM in assay [14]; 14.7 nM in [15]; 10.8 nM in assay [16]. The Kd came out at 0.024 nM in [17]; 4.91 nM in assay [18]; 0.071 nM in [19]; 0.012 nM in [20]; 10.8 nM in [21]. Further, the “EC50, FRNT” value in [3], in assay [4], in assay [5] and in assay [6] was less than 1 µg/mL throughout.
